Test results taken from the supplement of paper PMC9170038.

Tested on: MS2 coat protein
Test: apparent KD of MS2 coat protein; designed switch direction (-1 OFF switch, 1 ON switch): -1; higher = weaker reporter binding
Method in brief: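 The reported apparent KD is a per-design median over clusters, from curve fits of normalised cluster fluorescence. Protein titrations used SNAP-549-labelled MS2 coat protein, doubled from 0.7 or 1.5 nM to 3 µM, in Tris-HCl pH 7.5 buffer with KCl, MgCl2, BSA, DTT, tRNA and Tween-20, with no input, 200 uM small-molecule ligand, or an oligonucleotide input. The RNA switches were transcribed on Illumina chips by stalled E. coli RNA polymerase.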

[1] = Eterna round: R95, input ligand: FMN 200 uM
[2] = Eterna round: R95, input ligand: microRNA oligo, concentration not stated
[3] = Eterna round: R95, input ligand: none
[4] = input ligand: microRNA oligo, concentration not stated

Sequence: GUGAUCUAUCAUGUAAUGAACAUGAGGAUCACCCAUGUAGGCAGGUUUUUUGCUCGUCACAUAAUAAGAUAGAUCAC [Antenna 20 - Jieux - Sensor, turn-off variant 1] (Eterna round: R97, puzzle: Sensor, turn-off variant 1)
- apparent KD of MS2 coat protein (input ligand: FMN 200 uM): 18.6 nM
- apparent KD of MS2 coat protein (input ligand: none): 24.2 nM

Sequence: GUGGAGUAAGGAUAUACAUGAGGAUCACCCAUGUAAGGGAAGGUGAUGGGAGUAGAUAGUAGAAGGUACGAGGA [JR_Exclu3_Sub067] (puzzle: Exclusion 3)
- apparent KD of MS2 coat protein [1]: 58.3 nM
- apparent KD of MS2 coat protein [2]: 97.2 nM
- apparent KD of MS2 coat protein [3]: 100 nM

Sequence: GUGGCACAUGAGGAUCACCCAUGUCAGGAUAUCGCGUGGUUUUUUGCGGCCGCGCGCGCGAGAAGGGACGUCUU (puzzle: Exclusion 1)
- apparent KD of MS2 coat protein [2]: 31.1 nM

Sequence: GUGGCACUAGUGAGGAUAUGGAAAUUGACAGAUAUCCAGAAGGCACAUGAGGAUCACCCAUGUCGAAUCCAGCA [Eternabot (L1) Solution 81] (Eterna round: R97, puzzle: Brourd's mod of Exclusion 4)
- apparent KD of MS2 coat protein (input ligand: FMN 200 uM): 36.9 nM
- apparent KD of MS2 coat protein (input ligand: none): 22.8 nM

Sequence: GUGUAACAAGGAUAUACAUGAGGAUCACCCAUGUGAAUAAGAUUGAAUAAGAUAAAGUGUAGAAGGUGUAGUGU [Excluse me!!! 9 - Jieux - Exclusion 3] (puzzle: Exclusion 3)
- apparent KD of MS2 coat protein [1]: 32.5 nM
- apparent KD of MS2 coat protein [2]: 31.6 nM
- apparent KD of MS2 coat protein [3]: 37.1 nM

Sequence: GUGUAACUACACGGGCUCAACAUGAGGAUCACCCAUGUCAUACACGCAAGCUCUUUGCUUGUCUUAUCUGUCCGUGA [Erriusti] (puzzle: Sensor v3, turn-off variant 1)
- apparent KD of MS2 coat protein [1]: 16.8 nM
- apparent KD of MS2 coat protein [2]: 16.6 nM
- apparent KD of MS2 coat protein [3]: 14.5 nM

Sequence: GUGUAACUACACGGGCUCAACAUGAGGAUCACCCAUGUCAUACACGCAAGCUUUUUGCUUGUCUUAUCUGUCCGUGU [Cegeesre] (puzzle: Sensor v3, turn-off variant 1)
- apparent KD of MS2 coat protein [1]: 12.4 nM
- apparent KD of MS2 coat protein [2]: 12.2 nM
- apparent KD of MS2 coat protein [3]: 11.5 nM

Sequence: GUGUACAGAGGAUAUACUUAUGGAGUCACGAAAGUGGCUUCACAUGAGGAUCACCCAUGUAGAAGGCUGUACAC [Dot plot directed v11] (puzzle: Exclusion 2)
- apparent KD of MS2 coat protein [2]: 23.7 nM

Sequence: GUGUACCGAGGAUAUGCUGGAAUCUAGCGAAGCUAGGUUCCACAUGAGGAUCACCCAUGUAGAAGGUGGUACAC [Dot plot directed A v7] (puzzle: Exclusion 2)
- apparent KD of MS2 coat protein [2]: 55.5 nM

Sequence: GUGUAGAGAGGAUAUACAUGAGGAUCACCCAUGUGAAUAAGAUAGAAUAAGAUAAAGUGUAGAAGGUUUAGUGU [Excluse me!!! 18 - Jieux - Exclusion 3] (puzzle: Exclusion 3)
- apparent KD of MS2 coat protein [2]: 38.4 nM

Sequence: GUGUAGAUAGGAUAUACAUGAGGAUCACCCAUGUGAAUAAGAUAGAAUAAGAUAAAGUGUAGAAGGGUUAGUGU [Excluse me!!! 19 - Jieux - Exclusion 3] (puzzle: Exclusion 3)
- apparent KD of MS2 coat protein [1]: 34.3 nM
- apparent KD of MS2 coat protein [2]: 30.2 nM
- apparent KD of MS2 coat protein [3]: 39.9 nM

Sequence: GUGUUGUCAGGAUAUCUUACAUAACUAUCGUUGUUACCAUUGGAGAAGGGACAUGAGGAUCACCCAUGUUUUCG [tap-tap-tappy50] (Eterna round: R97, puzzle: Exclusion 4)
- apparent KD of MS2 coat protein (input ligand: FMN 200 uM): 23.9 nM
- apparent KD of MS2 coat protein (input ligand: none): 24.6 nM

Sequence: GUUAACGUAGGAUAUUAGUACAUACACAUGAGGAUCACCCAUGUUUAGUGGGUCUAAGAAUAAGAAGGGCGAAGAA [EX5 #25] (Eterna round: R97, puzzle: Exclusion 5)
- apparent KD of MS2 coat protein (input ligand: FMN 200 uM): 117 nM
- apparent KD of MS2 coat protein (input ligand: none): 130 nM

Sequence: GUUAAGGUAGGAUAUACGAUAAUAGAGGGUAGAUAUAUAACACAUGAGGAUCACCCAUGUAGAAGGACCAAUUG [Mat - Exclusion 2 - Mod of my Tesla design - D58] (puzzle: Exclusion 2)
- apparent KD of MS2 coat protein [1]: 91.3 nM
- apparent KD of MS2 coat protein [2]: 41.2 nM
- apparent KD of MS2 coat protein [3]: 36.8 nM

Sequence: GUUAAGGUAGGAUAUACGAUAAUAUAGGGUAGAUAUAGAACACAUGAGGAUCACCCAUGUAGAAGGACCAAUUG [Mat - Exclusion 2 - Mod of my Tesla design - D54] (puzzle: Exclusion 2)
- apparent KD of MS2 coat protein [2]: 28.6 nM

Sequence: GUUACACAUGAGGAUCACCCAUGUAAGGAUAUGCUGCGGUCGCGAAAACGUGACUGCAGCAGAAGGUACACAUG [Mat - Mod of JL D61] (puzzle: Exclusion 1)
- apparent KD of MS2 coat protein [2]: 135 nM

Sequence: GUUACACAUGAGGAUCACCCAUGUAAGGAUAUGCUGCGGUCGCGCUGACGUGACUGCAGCAGAAGGUACAAUUG (puzzle: Exclusion 1)
- apparent KD of MS2 coat protein [2]: 67.6 nM

Sequence: GUUCGGGCAGGAUAUACAUGAGGAUCACCCAUGUGUGUCCAUACGCGUGAGUCUUCGUGUAGAAGGGUUUGGGC [-30.5, -27.8 kcal, 20% A] (Eterna round: R97, puzzle: Exclusion 3)
- apparent KD of MS2 coat protein (input ligand: FMN 200 uM): 27.3 nM
- apparent KD of MS2 coat protein (input ligand: none): 21.1 nM

Sequence: GUUGACGGAGGAUAUACAGCCGAGAUCCACCGUGUGGAGGAACAUGAGGAUCACCCAUGUAGAAGGCUGCAGUA [Eternabot (L2) Solution 92] (Eterna round: R97, puzzle: Exclusion 2)
- apparent KD of MS2 coat protein (input ligand: FMN 200 uM): 16 nM
- apparent KD of MS2 coat protein (input ligand: none): 17.1 nM

Sequence: GUUGCAAGCACUUACGUUGACAUGAGGAUCACCCAUGUAGCAUCUCCGCCAAUCUAAGCCGUUGUCUUAUAUACCUU [Eternabot (L2) Solution 3] (Eterna round: R97, puzzle: Sensor, turn-off variant 1)
- apparent KD of MS2 coat protein (input ligand: FMN 200 uM): 34.5 nM
- apparent KD of MS2 coat protein (input ligand: none): 51.7 nM

Sequence: GUUGGUAAGUCAGGAUAUCCCUGUAAUGGCAGCGGAGAAGGGACAUGAGGAUCACCCAUGUGAACCUCCGGCGGGUAAACCCGC [Issoange] (Eterna round: R96, puzzle: Exclusion NG 1)
- apparent KD of MS2 coat protein (input ligand: FMN 200 uM): 103 nM
- apparent KD of MS2 coat protein [4]: 20.5 nM
- apparent KD of MS2 coat protein (input ligand: none): 37.1 nM

Sequence: GUUGUUUAUGUAGGAUAUGCCUGGCGAGCCUAAGCAGAAGGACAUGAGGAUCACCCAUGUAUUGCGGUCUGCGUUCAGAUCGCU [salish99_ExNG1_r4_018] (Eterna round: R96, puzzle: Exclusion NG 1)
- apparent KD of MS2 coat protein (input ligand: FMN 200 uM): 38.3 nM
- apparent KD of MS2 coat protein [4]: 9.94 nM
- apparent KD of MS2 coat protein (input ligand: none): 18.9 nM

Sequence: GUUGUUUAUGUAGGAUAUGCCUGGCGUGCCUAUGCAGAAGGACAUGAGGAUCACCCAUGUAUUGCGGUCUGCGUUCAGAUCGCU [salish99_ExNG1_r4_020] (Eterna round: R96, puzzle: Exclusion NG 1)
- apparent KD of MS2 coat protein (input ligand: FMN 200 uM): 23.2 nM
- apparent KD of MS2 coat protein [4]: 15.8 nM
- apparent KD of MS2 coat protein (input ligand: none): 22 nM

Sequence: GUUUCGAGACGGAGAUCCGACAUGAGGAUCACCCAUGUCUCCCAAGCUUUUUGCUCGUCUUAUACUCCUCUGUUCUC [Elimod 47 - Jieux - Sensor, turn-off variant 1] (Eterna round: R97, puzzle: Sensor, turn-off variant 1)
- apparent KD of MS2 coat protein (input ligand: FMN 200 uM): 18 nM
- apparent KD of MS2 coat protein (input ligand: none): 19.4 nM

Sequence: GUUUGACAUGAGGAUCACCCAUGUAAGGAUAUACGAGUAGCUACUAGGUAGUUAGUAUGUAGAAGGUACGUGUU [EX1 #65] (Eterna round: R97, puzzle: Exclusion 1)
- apparent KD of MS2 coat protein (input ligand: FMN 200 uM): 50.4 nM
- apparent KD of MS2 coat protein (input ligand: none): 40.3 nM

Sequence: GUUUUCAGACGGAGAUCCUACAUGAGGAUCACCCAUGUCUCACAAGCUUUUUGCUCGUCUUAUUCUCCUCUGUUCUC [Elimod 41 - Jieux - Sensor, turn-off variant 1] (Eterna round: R97, puzzle: Sensor, turn-off variant 1)
- apparent KD of MS2 coat protein (input ligand: FMN 200 uM): 23.8 nM
- apparent KD of MS2 coat protein (input ligand: none): 26.1 nM

Sequence: GUUUUCAGACGGAGAUCCUACAUGAGGAUCACCCAUGUCUCUCUUGCUAAUUGCUCGUCUUUUCCUCCUCUGUUCUC [Elimod 35 - Jieux - Sensor, turn-off variant 1] (Eterna round: R97, puzzle: Sensor, turn-off variant 1)
- apparent KD of MS2 coat protein (input ligand: FMN 200 uM): 457 nM
- apparent KD of MS2 coat protein (input ligand: none): 567 nM

Sequence: UAAAACGCAGAGGAUAUAUCAGAUCAAAGCUGCAUAGAAGGCUGCACAUGAGGAUCACCCAUGUGGUCUUUAAU [Mat - Exclusion 6 - JL Mod - D1] (Eterna round: R97, puzzle: Exclusion 6)
- apparent KD of MS2 coat protein (input ligand: FMN 200 uM): 206 nM
- apparent KD of MS2 coat protein (input ligand: none): 20.6 nM

Sequence: UAAAAGCUAGGAUAUACAUGAGGAUCACCCAUGUCACGGGUGCCACACCGAAAGGUGCGUAGAAGGAGCCCAAA [Orrecedi] (puzzle: Exclusion 3)
- apparent KD of MS2 coat protein [2]: 38.4 nM

Sequence: UAAAAGCUAGGAUAUGCAAGGUCCGACAUGAGGAUCACCCAUGUGCUCCUAUGCACAUUUGCAGAAGGAGCGAAAA [EX5 A.6] (Eterna round: R97, puzzle: Exclusion 5)
- apparent KD of MS2 coat protein (input ligand: FMN 200 uM): 537 nM
- apparent KD of MS2 coat protein (input ligand: none): 83 nM

Sequence: UAAAAGGAUGUCAGGAUAUGCGCUUGGGAUCAAGAGCAGAAGGGACAUGAGGAUCACCCAUGUAACGGUGCGAA [Oraninus] (puzzle: Brourd's mod of Exclusion 4)
- apparent KD of MS2 coat protein [1]: 36.4 nM
- apparent KD of MS2 coat protein [2]: 33.9 nM
- apparent KD of MS2 coat protein [3]: 44.5 nM
